US7015023

Key:
[1] = molecular target: GUS-YVAA-HBD fusion protein (beta-glucuronidase, Tyr-Val-Ala-Ala-Gly linker, hormone binding domain of rat glucocorticoid receptor) (UniProt P05804)
[2] = molecular target: GUS alone (beta-glucuronidase) (UniProt P05804)
GUS alone (beta-glucuronidase), sequence (P05804 whole entry, looked up): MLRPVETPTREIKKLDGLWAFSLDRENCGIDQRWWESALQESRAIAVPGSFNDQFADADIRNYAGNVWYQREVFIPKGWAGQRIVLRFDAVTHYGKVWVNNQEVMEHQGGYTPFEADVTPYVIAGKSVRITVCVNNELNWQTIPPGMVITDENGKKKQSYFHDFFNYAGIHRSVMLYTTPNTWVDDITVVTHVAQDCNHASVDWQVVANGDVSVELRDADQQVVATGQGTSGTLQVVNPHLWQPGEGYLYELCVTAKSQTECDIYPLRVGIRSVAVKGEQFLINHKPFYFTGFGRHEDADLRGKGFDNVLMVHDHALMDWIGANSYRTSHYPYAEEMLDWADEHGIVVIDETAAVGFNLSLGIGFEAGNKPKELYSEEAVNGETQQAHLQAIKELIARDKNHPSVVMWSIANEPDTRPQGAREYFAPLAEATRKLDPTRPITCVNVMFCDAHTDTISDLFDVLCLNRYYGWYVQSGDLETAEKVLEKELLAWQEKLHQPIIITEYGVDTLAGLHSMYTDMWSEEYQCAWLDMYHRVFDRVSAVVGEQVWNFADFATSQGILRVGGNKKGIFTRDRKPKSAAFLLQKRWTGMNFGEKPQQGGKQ

GUS-YVAA-HBD fusion protein (beta-glucuronidase, Tyr-Val-Ala-Ala-Gly linker, hormone binding domain of rat glucocorticoid receptor), sequence (P05804 other isoform, or with tags, fused parts or gaps): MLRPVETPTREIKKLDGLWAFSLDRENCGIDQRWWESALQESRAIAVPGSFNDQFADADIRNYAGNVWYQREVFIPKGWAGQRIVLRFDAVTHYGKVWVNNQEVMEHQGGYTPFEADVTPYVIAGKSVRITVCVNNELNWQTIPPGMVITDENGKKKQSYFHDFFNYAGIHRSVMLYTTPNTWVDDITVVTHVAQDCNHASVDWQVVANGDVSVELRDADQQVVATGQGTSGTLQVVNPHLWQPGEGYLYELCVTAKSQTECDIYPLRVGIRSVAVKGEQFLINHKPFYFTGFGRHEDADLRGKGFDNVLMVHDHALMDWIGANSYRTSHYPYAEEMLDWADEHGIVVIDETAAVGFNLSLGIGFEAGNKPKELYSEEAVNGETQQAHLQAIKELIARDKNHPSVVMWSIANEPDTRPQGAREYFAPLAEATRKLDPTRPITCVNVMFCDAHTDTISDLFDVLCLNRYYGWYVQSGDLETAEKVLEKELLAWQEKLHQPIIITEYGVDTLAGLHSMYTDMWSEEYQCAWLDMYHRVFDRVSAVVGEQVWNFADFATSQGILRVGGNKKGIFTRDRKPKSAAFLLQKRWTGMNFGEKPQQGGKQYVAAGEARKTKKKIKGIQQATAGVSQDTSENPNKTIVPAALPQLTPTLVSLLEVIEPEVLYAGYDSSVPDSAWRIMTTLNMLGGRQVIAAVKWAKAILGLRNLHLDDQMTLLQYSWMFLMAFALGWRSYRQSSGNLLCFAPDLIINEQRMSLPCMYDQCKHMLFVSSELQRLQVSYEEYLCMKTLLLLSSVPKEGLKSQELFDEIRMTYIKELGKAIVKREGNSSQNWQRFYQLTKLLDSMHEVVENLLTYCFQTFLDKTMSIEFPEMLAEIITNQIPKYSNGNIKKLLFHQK

**Q.** Which results are given for purified caspase-1?
**A.** GUS activity of in vitro translated fusion after addition of caspase-1 [1]: no detectable increase in GUS activity is observed; proteolytic cleavage, SDS-PAGE autoradiogram of 35S-labelled protein [1]: no obvious proteolysis was detected by caspase-1 was observed with either the P1 linker mutant fusion or the GUS alone control; proteolytic cleavage, SDS-PAGE autoradiogram of 35S-labelled protein [2]: no obvious proteolysis was detected by caspase-1 was observed with either the P1 linker mutant fusion or the GUS alone control
